17 substances from patent US7935785B2, “Selective substrates for matrix metalloproteinases” (Sanford-Burnham Medical Research Institute, priority 2001, dated 2011) can be followed below.

Holding throughout (type): biochemical
One experiment deals with T1, MMP-2 (Homo sapiens, UniProt P08253).
T1 construct: the cDNA encoding the catalytic domain of MMP-2 was generated by PCR; made in house; host or cells: HEK 293 cells
Description: Peptide substrate hydrolysis kinetics, fluorescamine incorporation assay (kcat/Km, selectivity ratio). As to conditions: MMP-2 substrates. How it is done:
(§1) In order to measure the selectivity of individual substrates for one metalloproteinase over another, representative polypeptides from the selected phage were synthesized and their rate of hydrolysis by several matrix metalloproteinases was determined. In some cases these representative polypeptide sequences contained an amino-terminal serine (S) and glycine (G) and/or a carboxyl-terminal threonine (T) and alanine (A) since these residues were used in the construction of the phage substrate library, although one skilled in the art will understand that other amino acid residues could be substituted at these positions. The kinetic parameters of substrate hydrolysis were measured using a fluorescamine incorporation assay that has been described previously (Ding et al., PNAS, 92:7627-7631 (1995); Coombs et al., Chem. and Biol. 5:475-488 (1998); Fields et al., J. Biol. Chem., 262:6221-6226 (1987); Netzel-Arnett., et al. J. Biol. Chem., 266:6747-6755 (1991)).
(§2) Briefly, individual metalloproteinases were incubated with the individual polypeptide substrates at concentrations ranging from 100-800 µM. At selected time points the reactions were stopped by the addition of 1,10 phenanthroline. Polypeptide hydrolysis was determined by the addition of fluorescamine followed by detection at an excitation wavelength of 355 nm and an emission wavelength of 460 nm. The data were transformed to double reciprocal plots (1/[S] vs 1/vi) to determine Km and kcat. In some cases Km and kcat could not be determined individually, but the specificity constant, kcat/Km, was derived by the equation: […] (Netzel-Arnett, supra, and Zumla et al., J. Immunol. Methods 149:69-76 (1992)).
(§3) The selectivity ratio of each polypeptide substrate was calculated by dividing the kcat/Km value for one matrix metalloproteinase by the kcat/Km value for the other matrix metalloproteinases that were tested. […] In many cases the polypeptide substrates are selective for one matrix metalloproteinase compared to several other matrix metalloproteinases.
(§4) The kinetic parameters of substrate hydrolysis were measured using a fluorescamine incorporation assay that has been previously described (Ding et al., PNAS, 92:7627-7631 (1995); Coombs et al., Chem. and Biol. 5:475-488 (1998); Fields et al., J. Biol. Chem., 262:6221-6226 (1987); Netzel-Arnett., et al. J. Biol. Chem., 266:6747-6755 (1991)). Briefly, MMP-2, MMP-9, MMP-7, or MMP-13 were incubated with individual peptide substrates at concentrations ranging from 100-800 μM in 50 mM Tris, pH 7.5, 100 mM NaCl, 10 mM CaCl2, 50 μM ZnCl2. At selected time points the reactions were stopped by the addition of 1,10-phenanthroline. Peptide hydrolysis was determined by the addition of fluorescamine followed by detection at λex 355 nm and λem 460 nm. The data were transformed to double reciprocal plots (1/[S] vs 1/vj) to determine Km and kcat. […] A double recipricol plot of the hydrolysis of peptide B 74 is shown as a representative plot (FIG. 4).

A further experiment has as its target T2, MMP-9 (Homo sapiens, UniProt P14780).
T2 construct: a recombinant form of the catalytic domain of MMP-9 expressed in HEK 293 cells; made in house; host or cells: HEK 293 cells
Description: Peptide substrate hydrolysis kinetics, fluorescamine incorporation assay (kcat, Km, kcat/Km, selectivity ratio). The conditions noted are these: for selectivity ratio: kcat/Km for MMP-9 divided by kcat/Km for MMP-1 / selectivity ratio: kcat/Km for MMP-9 divided by kcat/Km for MMP-7: MMP-9 substrates. How it is done: as §1, §2, §3, §4
The Michaelis constant (Km) and first-order rate constant of substrate peptide turnover (kcat) were measured by incubating a range of each peptide with MMP-9. Peptide hydrolysis was measured by incorporation of fluorescamine onto newly formed amino-termini as previously described. From these measurements, kcat and Km were derived for each peptide using double-reciprocal plots of 1/[S] vs 1/vj. Among the peptides, the kcat values ranged from 9 s^−1 to 703 and Km values were generally in the high micromolar to low millimolar range.

A further experiment has as its target MT1-MMP (Homo sapiens, UniProt P50281). Description: Peptide substrate hydrolysis kinetics, selectivity between MT1-MMP and MMP-9. The conditions noted are these: MT1-MMP substrates. How it is done:
as §1, §2, §3
Polypeptide substrates for Membrane type-Matrix Metalloproteinase 1 (MT1-MMP) were identified using substrate phage display as described for MMP-2 and MMP-9. Synthetic peptides that are analogous to the phage sequences were used to quantitate the level of selectivity between MT1-MMP and MMP-9 (see Table II).

[1] abbreviates: hydrolysis by MMP-9, Ala instead of Leu at P1′.

T1 sequence (P08253 110-465 limits assumed): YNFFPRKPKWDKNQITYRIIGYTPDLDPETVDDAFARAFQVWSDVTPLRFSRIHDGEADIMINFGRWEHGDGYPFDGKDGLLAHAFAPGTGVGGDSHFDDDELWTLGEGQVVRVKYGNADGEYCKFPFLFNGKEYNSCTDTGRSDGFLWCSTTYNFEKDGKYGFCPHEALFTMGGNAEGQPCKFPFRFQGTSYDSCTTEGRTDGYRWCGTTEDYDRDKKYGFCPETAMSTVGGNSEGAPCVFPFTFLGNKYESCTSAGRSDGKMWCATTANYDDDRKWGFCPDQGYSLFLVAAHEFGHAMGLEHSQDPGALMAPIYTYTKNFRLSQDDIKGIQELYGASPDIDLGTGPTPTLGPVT
T2 sequence (P14780 94-444 limits assumed): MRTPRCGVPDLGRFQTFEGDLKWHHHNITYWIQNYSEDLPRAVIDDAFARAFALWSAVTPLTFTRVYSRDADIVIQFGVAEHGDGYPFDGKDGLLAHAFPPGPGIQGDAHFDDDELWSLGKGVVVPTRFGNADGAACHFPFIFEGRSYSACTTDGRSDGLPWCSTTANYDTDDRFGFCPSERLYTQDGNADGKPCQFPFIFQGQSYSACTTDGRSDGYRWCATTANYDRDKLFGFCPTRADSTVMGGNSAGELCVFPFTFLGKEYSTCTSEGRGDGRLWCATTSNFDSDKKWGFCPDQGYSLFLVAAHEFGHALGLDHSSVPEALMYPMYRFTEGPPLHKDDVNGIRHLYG

Turning to “A3: MMP-2 selective substrate peptide from phage clone A3, sequence A-K-P-R-A-L-T-A (AKPRALTA)”, in the experiment with MMP-2, the “selectivity ratio: kcat/Km for MMP-2 divided by kcat/Km for MMP-1” value worked out at 14, the “selectivity ratio: kcat/Km for MMP-2 divided by kcat/Km for MMP-7” value is 21 and the “selectivity ratio: kcat/Km for MMP-2 divided by kcat/Km for MMP-9” value is 2.
In the case of “A6: MMP-9 selective substrate peptide from phage clone A6, sequence S-G-P-R-A-V-S-T-T-A (Table V) (PRAVST)”, in the experiment with MMP-9, the “selectivity ratio: kcat/Km for MMP-9 divided by kcat/Km for MMP-1” value is reported as 5 and the “selectivity ratio: kcat/Km for MMP-9 divided by kcat/Km for MMP-7” value was 47.
For the substance “A11: MMP-9 selective substrate peptide from phage clone A11, sequence S-G-K-I-P-R-T-L-T-A (Table V) (KIPRTLTA)”, in the experiment with MMP-9, the “selectivity ratio: kcat/Km for MMP-9 divided by kcat/Km for MMP-1” value is on record as 3 and the “selectivity ratio: kcat/Km for MMP-9 divided by kcat/Km for MMP-7” value was determined as 10.
In the case of “A13: MMP-2 selective substrate peptide from phage clone A13, sequence G-A-V-S-W-L-L-T (GAVSWLLT)”, in the experiment with MMP-2, the “selectivity ratio: kcat/Km for MMP-2 divided by kcat/Km for MMP-1” value is recorded as 28, the “selectivity ratio: kcat/Km for MMP-2 divided by kcat/Km for MMP-7” value is recorded as 13 and the “selectivity ratio: kcat/Km for MMP-2 divided by kcat/Km for MMP-9” value amounted to 15.
On to “A21: MMP-2 selective substrate peptide from phage clone A21, sequence H-M-H-K-A-L-T-A (HMHKALTA)”, for which the “selectivity ratio: kcat/Km for MMP-2 divided by kcat/Km for MMP-9” value with MMP-2 came to 8.
With “A34: MMP-2 selective substrate peptide from phage clone A34, sequence N-R-Y-S-S-L-T-A (NRYSSLTA)”, in the experiment with MMP-2, the “selectivity ratio: kcat/Km for MMP-2 divided by kcat/Km for MMP-1” value is listed as 24, the “selectivity ratio: kcat/Km for MMP-2 divided by kcat/Km for MMP-7” value stood at 84 and the “selectivity ratio: kcat/Km for MMP-2 divided by kcat/Km for MMP-9” value amounted to 40.
In the case of “A42: MT1-MMP selective substrate peptide from phage clone A42, sequence S-G-R-I-G-F-L-R-T-A (Table V) (RIGFLRT)”, the “selectivity ratio: kcat/Km for MT1-MMP divided by kcat/Km for MMP-9” value in the experiment with MT1-MMP was 54.
Still for that read-out and setting: in the case of “A176: MT1-MMP selective substrate peptide from phage clone A176, sequence S-G-R-S-E-N-I-R-T-A (Table V) (RSENIRT)” it was 73.
As for “AC-SGKIPRTATA-NH2 (Ac-SGKIPRTATA-NH2) [Clone A11m2]”, the kcat/Km ratio in the experiment with MMP-9 (hydrolysis by MMP-9) is 2,000 M^−1s^−1. Further, in the experiment with MMP-9 (setting [1]), the “effect of substitution on kcat and Km” value is “deleterious effects on both kcat and Km”; the “reduction of kcat/Km ratio relative to peptide A11” value was around 30 fold.
Consider “B37: MMP-2 selective substrate peptide from phage clone B37, sequence A-N-I-S-D-L-T-A (ANISDLTA)”, for which, in the experiment with MMP-2, the “selectivity ratio: kcat/Km for MMP-2 divided by kcat/Km for MMP-1” value is listed as 58, the “selectivity ratio: kcat/Km for MMP-2 divided by kcat/Km for MMP-7” value was found to be 17 and the “selectivity ratio: kcat/Km for MMP-2 divided by kcat/Km for MMP-9” value was determined as 71.
For “B49: MMP-2 selective substrate peptide from phage clone B49, sequence L-R-L-A-A-I-T-A (LRLAAITA)” the same measures were 13, 6 and 14.
Take “B74: MMP-2 selective substrate peptide from phage clone B74, sequence E-S-L-A-Y-Y-T-A (ESLAYYTA)”: in the experiment with MMP-2, the “selectivity ratio: kcat/Km for MMP-2 divided by kcat/Km for MMP-1” value is on record as 140, the “selectivity ratio: kcat/Km for MMP-2 divided by kcat/Km for MMP-7” value turned out to be 354 and the “selectivity ratio: kcat/Km for MMP-2 divided by kcat/Km for MMP-9” value is 108.
As to “B96: MT1-MMP selective substrate peptide from phage clone B96, sequence S-G-L-I-S-H-S-I-T-A (Table V) (LISHSITA)”, the “selectivity ratio: kcat/Km for MT1-MMP divided by kcat/Km for MMP-9” value in the experiment with MT1-MMP came out at 5.
As to “B149: MT1-MMP selective substrate peptide from phage clone B149, sequence S-G-A-R-Y-R-W-L-T-A (Table V) (ARYRWLTA)”, the “selectivity ratio: kcat/Km for MT1-MMP divided by kcat/Km for MMP-9” value with MT1-MMP worked out at 3.
Still for that read-out and setting: the figure for “B175: MT1-MMP selective substrate peptide from phage clone B175, sequence S-G-R-A-M-H-M-Y-T-A (Table V) (RAMHMYT)” is 19.
As to “C9: MMP-2 selective substrate peptide from phage clone C9, sequence R-S-L-S-R-L-T-A (RSLSRLTA)”, in the experiment with MMP-2, the “selectivity ratio: kcat/Km for MMP-2 divided by kcat/Km for MMP-1” value is 52, the “selectivity ratio: kcat/Km for MMP-2 divided by kcat/Km for MMP-7” value came to 35 and the “selectivity ratio: kcat/Km for MMP-2 divided by kcat/Km for MMP-9” value is 198.
Turning to “C15: MMP-9 selective substrate peptide from phage clone C15, sequence S-G-K-G-P-R-Q-I-T-A (Table V) (KGPRQITA)”, in the experiment with MMP-9, the “selectivity ratio: kcat/Km for MMP-9 divided by kcat/Km for MMP-1” value was determined as 12 and the “selectivity ratio: kcat/Km for MMP-9 divided by kcat/Km for MMP-7” value is given as 14.
